From paper PMC2173940 come the findings set out here.

The target of one experiment is soluble FcγRIIa (UniProt P12318). The experiment is described as follows: SPR; BIAcore 2000; FcγRIIa, FcγRIIb or FcγRIIIa amine-coupled to CM5 (8000-10000 RU); IgG1-4, with or without EndoS treatment, injected, typically 10-1.25 µg/ml, 35 µl/min, 25°C; 10 mM HEPES pH 7.5, 150 mM NaCl, 0.005% P20, 3.4 mM EDTA; 1:1 Langmuir fit; empty flow cell as reference. In general terms: Surface plasmon resonance follows binding to a sensor surface in real time, without labels.
UniProt P12318, sequence (P12318 34-217): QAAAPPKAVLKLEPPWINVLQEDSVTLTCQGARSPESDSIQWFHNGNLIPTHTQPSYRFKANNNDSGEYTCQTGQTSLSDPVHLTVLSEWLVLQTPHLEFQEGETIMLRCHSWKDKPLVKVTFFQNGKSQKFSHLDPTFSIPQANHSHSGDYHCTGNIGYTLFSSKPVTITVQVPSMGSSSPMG

Another experiment has as its target soluble FcγRIIb (UniProt P31994). Described as above.
UniProt P31994, sequence (P31994 43-217): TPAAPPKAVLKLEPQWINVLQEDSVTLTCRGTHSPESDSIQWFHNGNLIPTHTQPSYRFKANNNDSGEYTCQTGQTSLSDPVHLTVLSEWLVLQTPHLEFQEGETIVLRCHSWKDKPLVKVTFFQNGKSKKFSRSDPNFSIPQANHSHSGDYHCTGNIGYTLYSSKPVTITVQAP
A further experiment deals with human IgG3 (human). Put plainly: SPR; BIAcore 2000; IgG1-4 or deglycosylated IgG1-4 amine-coupled to CM5 (8000-10000 RU); EndoS or EndoS(E235Q) injected, typically 10-1.25 µg/ml, 35 µl/min, 25°C; 10 mM HEPES pH 7.5, 150 mM NaCl, 0.005% P20, 3.4 mM EDTA; 1:1 Langmuir fit; deglycosylated IgG flow cells as reference.
In a further experiment the target is human IgG4 (human). Described as above.
Another experiment has as its target human IgG1 (human). The experiment is described as above.
A further experiment has as its target human IgG2 (human). The experiment is described as above.

For the molecule human IgG1 (antibody), the Kd (usually the concentration at which binding is half-saturated) with soluble FcγRIIa was 97 nM.

With human IgG4 (antibody), in the experiment with soluble FcγRIIb, the Kd was 200 nM; the koff (in general, a measure of how fast the partners let go of each other) is 0.0069 s⁻¹; the kon (commonly a measure of how fast the partners come together) came out at 34000 M⁻¹ s⁻¹.

B1: EndoS(E235Q), inactive form of EndoS (enzyme)
chain: EEKTVQVQKGLPSIDSLHYLSENSKKEFKEELSKAGQESQKVKEILAKAQQADKQAQELAKMKIPEKIPMKPLHGSLYGGYFRTWHDKTSDPTEKDKVNSMGELPKEVDLAFIFHDWTKDYSLFWKELATKHVPKLNKQGTRVIRTIPWRFLAGGDNSGIAEDTSKYPNTPEGNKALAKAIVDEYVYKYNLDGLDVDVQHDSIPKVDKKEDTAGVERSIQVFEEIGKLIGPKGVDKSRLFIMDSTYMADKNPLIERGAPYINLLLVQVYGSQGEKGGWEPVSNRPEKTMEERWQGYSKYIRPEQYMIGFSFYEENAQEGNLWYDINSRKDEDKANGINTDITGTRAERYARWQPKTGGVKGGIFSYAIDRDGVAHQPKKYAKQKEFKDATDNIFHSDYSVSKALKTVMLKDKSYDLIDEKDFPDKALREAVMAQVGTRKGDLERFNGTLRLDNPAIQSLEGLNKFKKLAQLDLIGLSRITKLDRSVLPANMKPGKDTLETVLETYKKDNKEEPATIPPVSLKVSGLTGLKELDLSGFDRETLAGLDAATLTSLEKVDISGNKLDLAPGTENRQIFDTMLSTISNHVGSNEQTVKFDKQKPTGHYPDTYGKTSLRLPVANEKVDLQSQLLFGTVTNQGTLINSEADYKAYQNHKIAGRSFVDSNYHYNNFKVSYENYTVKVTDSTLGTTTDKTLATDKEETYKVDFFSPADKTKAVHTAKVIVGDEKTMMVNLAEGATVIGGSADPVNARKVFDGQLGSETDNISLGWDSKQSIIFKLKEDGLIKHWRFFNDSARNPETTNKPIQEASLQIFNIKDYNLDNLLENPNKFDDEKYWITVDTYSAQGERATAFSNTLNNITSKYWRVVFDTKGDRYSSPVVPELQILGYPLPNADTIMKTVTTAKELSQQKDKFSQKMLDELKIKEMALETSLNSKIFDVTAINANAGVLKDCIEKRQLLKK
For the molecule B1, the Kd in the experiment with human IgG3 (human) came out at 83 nM; with human IgG4 (human), 140 nM; with human IgG1 (human), 420 nM; with human IgG2 (human) it was 210 nM. The koff is 0.0089 s⁻¹ with human IgG3 (human), 0.002 s⁻¹ with human IgG4 (human), 0.0176 s⁻¹ with human IgG1 (human) and 0.0025 s⁻¹ with human IgG2 (human). Moreover, the kon with human IgG3 (human) came out at 107000 M⁻¹ s⁻¹; in the experiment with human IgG4 (human), 15000 M⁻¹ s⁻¹; with human IgG1 (human), 42000 M⁻¹ s⁻¹; with human IgG2 (human) it was 12000 M⁻¹ s⁻¹.
